The assay concerns the target T1, recombinant protein comprising the whole extracellular part of IL1RI (UniProt P14778 18-336).
T1 chain: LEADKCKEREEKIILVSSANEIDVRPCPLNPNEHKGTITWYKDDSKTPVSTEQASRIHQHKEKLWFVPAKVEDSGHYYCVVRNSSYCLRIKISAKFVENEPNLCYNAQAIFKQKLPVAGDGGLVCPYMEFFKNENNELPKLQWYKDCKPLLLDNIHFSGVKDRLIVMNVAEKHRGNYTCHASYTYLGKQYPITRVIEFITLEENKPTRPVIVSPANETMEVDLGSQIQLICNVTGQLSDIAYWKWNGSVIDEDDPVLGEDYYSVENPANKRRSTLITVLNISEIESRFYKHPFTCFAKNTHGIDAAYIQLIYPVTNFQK
In words: SPR.

Regarding SGRKSSKMQA [Ilantafin peptide (SEQ ID NO:1), SGRKSSKMQA], the Kd turned out to be 171 nM.

Broadly, the Kd is the free concentration of one partner at which half of the binding sites on the other are occupied at equilibrium, for simple one-to-one binding.
